B1: DVD567 (bispecific antibody, human IgG1, kappa)
heavy: not shown
light: AIQMTQSSSSFSVSLGDRVTITCKASEDIYNRFAWYQQKPGNAPRLLISGAASLEAGVPSRFSGSGSGQDYTLSITSLQTEDVATYYCQQYWSTPWTFGGGTKLEIKRTVAAPSVFIFPPDIQMTQSPSSLSASVGDRVTITCRASQDVSTAVAWYQQKPGKAPKLLIYSASFLYSGVPSRFSGSGSGTDFTLTISSLQPEDFATYYCQQSYTTPPTFGQGTKVEIKRTVAAPSVFIFPPSDEQLKSGTASVVCLLNNFYPREAKVQWKVDNALQSGNSQESVTEQDSKDSTYSLSSTLTLSKADYEKHKVYACEVTHQGLSSPVTKSFNRGEC
notes: HC linker short, LC linker long; also called DVD-Ig DVD567
B2: DVD711 (bispecific antibody, human IgG1, kappa)
heavy: not shown
light: DIQMTQSPSSVSASVGDRVTITCRASQGISSWLAWYQQKPGKAPNLLIYEASSLQSGVPSRFGGSGSGTDFTLTISSLQPEDFATYYCQQANGFPWTFGQGTKVEIKRTVAAPDIQMTQSPSSLSASVGDRVTITCRASQVIRRSLAWYQQKPGKAPKLLIYAASNLASGVPSRFSGSGSGTDFTLTISSLQPEDFATYYCQQSNTSPLTFGQGTKVEIKRTVAAPSVFIFPPSDEQLKSGTASVVCLLNNFYPREAKVQWKVDNALQSGNSQESVTEQDSKDSTYSLSSTLTLSKADYEKHKVYACEVTHQGLSSPVTKSFNRGEC
notes: DVD-Ig; N-term VD AB012 (HGF), C-term VD AB071 (VEGF); HC linker short, LC linker short; vectors V1/V2
B3: DVD709 (bispecific antibody, human IgG1, kappa)
heavy: not shown
light: DIQMTQSPSSVSASVGDRVTITCRASQGISSWLAWYQQKPGKAPNLLIYEASSLQSGVPSRFGGSGSGTDFTLTISSLQPEDFATYYCQQANGFPWTFGQGTKVEIKRTVAAPDIQMTQSPSSLSASVGDRVTITCRASQDVSTAVAWYQQKPGKAPKLLIYSASFLYSGVPSRFSGSGSGTDFTLTISSLQPEDFATYYCQQSYTTPPTFGQGTKVEIKRTVAAPSVFIFPPSDEQLKSGTASVVCLLNNFYPREAKVQWKVDNALQSGNSQESVTEQDSKDSTYSLSSTLTLSKADYEKHKVYACEVTHQGLSSPVTKSFNRGEC
notes: DVD-Ig; HC linker short, LC linker short; vectors V1/V2
B4: DVD553 (bispecific antibody, human IgG1, kappa)
heavy: not shown
light: AIQMTQSSSSFSVSLGDRVTITCKASEDIYNRFAWYQQKPGNAPRLLISGAASLEAGVPSRFSGSGSGQDYTLSITSLQTEDVATYYCQQYWSTPWTFGGGTKLEIKRTVAAPSVFIFPPDIQMTQSPSSLSASVGDRVTITCRASQVIRRSLAWYQQKPGKAPKLLIYAASNLASGVPSRFSGSGSGTDFTLTISSLQPEDFATYYCQQSNTSPLTFGQGTKVEIKRTVAAPSVFIFPPSDEQLKSGTASVVCLLNNFYPREAKVQWKVDNALQSGNSQESVTEQDSKDSTYSLSSTLTLSKADYEKHKVYACEVTHQGLSSPVTKSFNRGEC
notes: outer AB074 (PlGF), inner AB071 (VEGF); HC linker long, LC linker long; also called DVD-Ig DVD553
B5: DVD655 (bispecific antibody, human IgG1, kappa)
heavy: not shown
light: DIQMTQSPSSVSASVGDRVTITCRASQGISSWLAWYQQKPGKAPNLLIYEASSLQSGVPSRFGGSGSGTDFTLTISSLQPEDFATYYCQQANGFPWTFGQGTKVEIKRTVAAPSVFIFPPDIQMTQSPSSLSASVGDRVTITCRASQDVSTAVAWYQQKPGKAPKLLIYSASFLYSGVPSRFSGSGSGTDFTLTISSLQPEDFATYYCQQSYTTPPTFGQGTKVEIKRTVAAPSVFIFPPSDEQLKSGTASVVCLLNNFYPREAKVQWKVDNALQSGNSQESVTEQDSKDSTYSLSSTLTLSKADYEKHKVYACEVTHQGLSSPVTKSFNRGEC
notes: DVD-Ig; HC linker short, LC linker long; vectors V1/V2
B6: DVD669 (bispecific antibody, human IgG1, kappa)
heavy: not shown
light: DIQMTQSPSSLSASVGDRVTITCKASENVVSYVSWYQQKPGKAPKLLIYGASNRNTGVPSRFSGSGSGTDFTLTISSLQPEDFATYYCGQSYNYPYTFGQGTKLEIKRTVAAPSVFIFPPDIQMTQSPSSLSASVGDRVTITCRASQVIRRSLAWYQQKPGKAPKLLIYAASNLASGVPSRFSGSGSGTDFTLTISSLQPEDFATYYCQQSNTSPLTFGQGTKVEIKRTVAAPSVFIFPPSDEQLKSGTASVVCLLNNFYPREAKVQWKVDNALQSGNSQESVTEQDSKDSTYSLSSTLTLSKADYEKHKVYACEVTHQGLSSPVTKSFNRGEC
notes: DVD-Ig; N-term VD AB079 (HGF), C-term VD AB071 (VEGF); HC linker long, LC linker long; vectors V1/V2
B7: DVD681 (bispecific antibody, human IgG1, kappa)
heavy: not shown
light: DIQMTQSPSSLSASVGDRVTITCKASENVVSYVSWYQQKPGKAPKLLIYGASNRNTGVPSRFSGSGSGTDFTLTISSLQPEDFATYYCGQSYNYPYTFGQGTKLEIKRTVAAPSVFIFPPDIQMTQSPSSLSASVGDRVTITCRASQVIRRSLAWYQQKPGKAPKLLIYAASNLASGVPSRFSGSGSGTDFTLTISSLQPEDFATYYCQQSNTSPLTFGQGTKVEIKRTVAAPSVFIFPPSDEQLKSGTASVVCLLNNFYPREAKVQWKVDNALQSGNSQESVTEQDSKDSTYSLSSTLTLSKADYEKHKVYACEVTHQGLSSPVTKSFNRGEC
notes: DVD-Ig; N-term VD AB079 (HGF), C-term VD AB071 (VEGF); HC linker short, LC linker long; vectors V1/V2
B8: DVD550 (bispecific antibody, human IgG1, kappa)
heavy: not shown
light: DIQMTQSPSSLSASVGDRVTITCSASQDISNYLNWYQQKPGKAPKVLIYFTSSLHSGVPSRFSGSGSGTDFTLTISSLQPEDFATYYCQQYSTVPWTFGQGTKVEIKRTVAAPSVFIFPPAIQMTQSSSSFSVSLGDRVTITCKASEDIYNRFAWYQQKPGNAPRLLISGAASLEAGVPSRFSGSGSGQDYTLSITSLQTEDVATYYCQQYWSTPWTFGGGTKLEIKRTVAAPSVFIFPPSDEQLKSGTASVVCLLNNFYPREAKVQWKVDNALQSGNSQESVTEQDSKDSTYSLSSTLTLSKADYEKHKVYACEVTHQGLSSPVTKSFNRGEC
notes: HC linker long, LC linker long; also called DVD-Ig DVD550
B9: DVD657 (bispecific antibody, human IgG1, kappa)
heavy: not shown
light: DIQMTQSPSSVSASVGDRVTITCRASQGISSWLAWYQQKPGKAPNLLIYEASSLQSGVPSRFGGSGSGTDFTLTISSLQPEDFATYYCQQANGFPWTFGQGTKVEIKRTVAAPSVFIFPPDIQMTQSPSSLSASVGDRVTITCRASQVIRRSLAWYQQKPGKAPKLLIYAASNLASGVPSRFSGSGSGTDFTLTISSLQPEDFATYYCQQSNTSPLTFGQGTKVEIKRTVAAPSVFIFPPSDEQLKSGTASVVCLLNNFYPREAKVQWKVDNALQSGNSQESVTEQDSKDSTYSLSSTLTLSKADYEKHKVYACEVTHQGLSSPVTKSFNRGEC
notes: DVD-Ig; N-term VD AB012 (HGF), C-term VD AB071 (VEGF); HC linker short, LC linker long; vectors V1/V2
B10: DVD545 (bispecific antibody, human IgG1, kappa)
heavy: not shown
light: AIQMTQSSSSFSVSLGDRVTITCKASEDIYNRFAWYQQKPGNAPRLLISGAASLEAGVPSRFSGSGSGQDYTLSITSLQTEDVATYYCQQYWSTPWTFGGGTKLEIKRTVAAPDIQMTQSPSSLSASVGDRVTITCRASQVIRRSLAWYQQKPGKAPKLLIYAASNLASGVPSRFSGSGSGTDFTLTISSLQPEDFATYYCQQSNTSPLTFGQGTKVEIKRTVAAPSVFIFPPSDEQLKSGTASVVCLLNNFYPREAKVQWKVDNALQSGNSQESVTEQDSKDSTYSLSSTLTLSKADYEKHKVYACEVTHQGLSSPVTKSFNRGEC
notes: outer AB074 (PlGF), inner AB071 (VEGF); HC linker short, LC linker short; also called DVD-Ig DVD545
B11: DVD661 (bispecific antibody, human IgG1, kappa)
heavy: not shown
light: DIQMTQSPSSLSASVGDRVTITCKASENVVSYVSWYQQKPGKAPKLLIYGASNRNTGVPSRFSGSGSGTDFTLTISSLQPEDFATYYCGQSYNYPYTFGQGTKLEIKRTVAAPDIQMTQSPSSLSASVGDRVTITCRASQDVSTAVAWYQQKPGKAPKLLIYSASFLYSGVPSRFSGSGSGTDFTLTISSLQPEDFATYYCQQSYTTPPTFGQGTKVEIKRTVAAPSVFIFPPSDEQLKSGTASVVCLLNNFYPREAKVQWKVDNALQSGNSQESVTEQDSKDSTYSLSSTLTLSKADYEKHKVYACEVTHQGLSSPVTKSFNRGEC
notes: as for B3
B12: DVD673 (bispecific antibody, human IgG1, kappa)
heavy: not shown
light: DIQMTQSPSSLSASVGDRVTITCKASENVVSYVSWYQQKPGKAPKLLIYGASNRNTGVPSRFSGSGSGTDFTLTISSLQPEDFATYYCGQSYNYPYTFGQGTKLEIKRTVAAPDIQMTQSPSSLSASVGDRVTITCRASQDVSTAVAWYQQKPGKAPKLLIYSASFLYSGVPSRFSGSGSGTDFTLTISSLQPEDFATYYCQQSYTTPPTFGQGTKVEIKRTVAAPSVFIFPPSDEQLKSGTASVVCLLNNFYPREAKVQWKVDNALQSGNSQESVTEQDSKDSTYSLSSTLTLSKADYEKHKVYACEVTHQGLSSPVTKSFNRGEC
notes: DVD-Ig; HC linker long, LC linker short; vectors V1/V2
B13: DVD675 (bispecific antibody, human IgG1, kappa)
heavy: not shown
light: DIQMTQSPSSLSASVGDRVTITCKASENVVSYVSWYQQKPGKAPKLLIYGASNRNTGVPSRFSGSGSGTDFTLTISSLQPEDFATYYCGQSYNYPYTFGQGTKLEIKRTVAAPDIQMTQSPSSLSASVGDRVTITCRASQVIRRSLAWYQQKPGKAPKLLIYAASNLASGVPSRFSGSGSGTDFTLTISSLQPEDFATYYCQQSNTSPLTFGQGTKVEIKRTVAAPSVFIFPPSDEQLKSGTASVVCLLNNFYPREAKVQWKVDNALQSGNSQESVTEQDSKDSTYSLSSTLTLSKADYEKHKVYACEVTHQGLSSPVTKSFNRGEC
notes: DVD-Ig; N-term VD AB079 (HGF), C-term VD AB071 (VEGF); HC linker long, LC linker short; vectors V1/V2
B14: DVD667 (bispecific antibody, human IgG1, kappa)
heavy: not shown
light: DIQMTQSPSSLSASVGDRVTITCKASENVVSYVSWYQQKPGKAPKLLIYGASNRNTGVPSRFSGSGSGTDFTLTISSLQPEDFATYYCGQSYNYPYTFGQGTKLEIKRTVAAPSVFIFPPDIQMTQSPSSLSASVGDRVTITCRASQDVSTAVAWYQQKPGKAPKLLIYSASFLYSGVPSRFSGSGSGTDFTLTISSLQPEDFATYYCQQSYTTPPTFGQGTKVEIKRTVAAPSVFIFPPSDEQLKSGTASVVCLLNNFYPREAKVQWKVDNALQSGNSQESVTEQDSKDSTYSLSSTLTLSKADYEKHKVYACEVTHQGLSSPVTKSFNRGEC
notes: DVD-Ig; HC linker long, LC linker long; vectors V1/V2
B15: DVD679 (bispecific antibody, human IgG1, kappa)
heavy: not shown
light: DIQMTQSPSSLSASVGDRVTITCKASENVVSYVSWYQQKPGKAPKLLIYGASNRNTGVPSRFSGSGSGTDFTLTISSLQPEDFATYYCGQSYNYPYTFGQGTKLEIKRTVAAPSVFIFPPDIQMTQSPSSLSASVGDRVTITCRASQDVSTAVAWYQQKPGKAPKLLIYSASFLYSGVPSRFSGSGSGTDFTLTISSLQPEDFATYYCQQSYTTPPTFGQGTKVEIKRTVAAPSVFIFPPSDEQLKSGTASVVCLLNNFYPREAKVQWKVDNALQSGNSQESVTEQDSKDSTYSLSSTLTLSKADYEKHKVYACEVTHQGLSSPVTKSFNRGEC
notes: as for B5

Experiments:
PlGF [1] = biological target: T1, PlGF (UniProt P49763-2 21-149, limits assumed); assay: direct bind ELISA, N-terminal VD
T1 construct: bought antigen coated on the ELISA plate; also called Placental GF
T1 sequence (looked up): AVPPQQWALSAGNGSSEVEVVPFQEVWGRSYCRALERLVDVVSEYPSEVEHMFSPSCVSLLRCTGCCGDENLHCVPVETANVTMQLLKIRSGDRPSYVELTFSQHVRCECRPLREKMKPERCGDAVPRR

VEGF 1-165 aa = biological target: T2, VEGF 1-165 aa (UniProt P15692 27-191); assay: direct bind ELISA (C-term VD)
T2 construct: Bought antigen coated on the ELISA plate
T2 sequence (P15692 other isoform, or with tags, fused parts or gaps limits assumed): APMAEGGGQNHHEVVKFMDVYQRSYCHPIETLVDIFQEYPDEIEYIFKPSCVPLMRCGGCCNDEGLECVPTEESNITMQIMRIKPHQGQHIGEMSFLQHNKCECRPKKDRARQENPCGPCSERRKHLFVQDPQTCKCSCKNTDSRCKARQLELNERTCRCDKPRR
Protocol: (§1) Enzyme Linked Immunosorbent Assays to screen for antibodies that bind a desired target antigen were performed as follows. […] Plates were washed four times with PBS containing 0.02% Tween 20. Plates were blocked by the addition of 300 μL/well blocking solution (non-fat dry milk powder, various retail suppliers, diluted to 2% in PBS) for ½ hour at room temperature. Plates were washed four times after blocking with PBS containing 0.02% Tween 20.
Alternatively, one hundred microliters per well of 10 μg/ml of Histidine (His) tagged desired target antigen (R&D Systems, Minneapolis, Minn.) was added to ELISA plates coated with monoclonal mouse anti-polyHistidine antibody as described above and incubated for 1 hour at room temperature. Wells were washed four times with PBS containing 0.02% Tween 20.
(§2) Plates were washed 4 times with PBS containing 0.02% Tween 20.

HGF-His tag = biological target: T3, HGF-His tag (UniProt P14210 32-728); assay: direct bind ELISA (N-term VD);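 further: ELISA screen of antibodies for binding to plate-immobilized target antigen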
T3 construct: Bought antigen coated on the ELISA plate; not shown: His tag
T3 sequence (P14210 32-728 limits assumed): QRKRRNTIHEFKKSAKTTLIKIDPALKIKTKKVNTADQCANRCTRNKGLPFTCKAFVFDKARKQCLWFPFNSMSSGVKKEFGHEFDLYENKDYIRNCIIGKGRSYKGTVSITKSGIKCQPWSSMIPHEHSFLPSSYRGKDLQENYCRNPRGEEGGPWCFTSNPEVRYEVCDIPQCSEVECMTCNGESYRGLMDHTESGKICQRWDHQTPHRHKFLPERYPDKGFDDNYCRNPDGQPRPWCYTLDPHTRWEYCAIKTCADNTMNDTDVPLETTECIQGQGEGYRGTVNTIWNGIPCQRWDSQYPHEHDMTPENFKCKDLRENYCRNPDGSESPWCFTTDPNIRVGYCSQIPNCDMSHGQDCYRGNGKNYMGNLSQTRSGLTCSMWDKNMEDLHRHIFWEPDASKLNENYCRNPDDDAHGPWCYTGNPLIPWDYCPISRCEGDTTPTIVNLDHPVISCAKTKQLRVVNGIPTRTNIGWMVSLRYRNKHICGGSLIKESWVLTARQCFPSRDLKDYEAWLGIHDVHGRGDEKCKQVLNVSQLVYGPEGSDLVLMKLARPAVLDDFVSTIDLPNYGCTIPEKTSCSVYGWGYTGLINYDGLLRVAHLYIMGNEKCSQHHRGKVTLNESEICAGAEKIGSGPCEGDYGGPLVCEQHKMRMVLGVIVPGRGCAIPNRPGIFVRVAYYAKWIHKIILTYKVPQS

PlGF [2] = biological target: T1, PlGF; assay: direct bind ELISA, C-terminal VD
Protocol: as §1, §2

| Binder | EC50 (PlGF [1]) | EC50 (VEGF 1-165 aa) | EC50 (HGF-His tag) | EC50 (PlGF [2]) |
| --- | --- | --- | --- | --- |
| B1 | 340 nM |  |  |  |
| B2 |  | 166 nM | 1.32 nM |  |
| B3 |  | 1370 nM | 0.14 nM |  |
| B4 | 66300 nM |  |  |  |
| B5 |  | 92.9 nM | 0.19 nM |  |
| B6 |  | 1660 nM | 0.29 nM |  |
| B7 |  | 2160 nM | 0.27 nM |  |
| B8 |  |  |  | 146 nM |
| B9 |  | 358 nM | 0.31 nM |  |
| B10 | 98.8 nM |  |  |  |
| B11 |  | 566 nM | 0.7 nM |  |
| B12 |  | 65.3 nM | 0.4 nM |  |
| B13 |  | 5770 nM | 0.48 nM |  |
| B14 |  | 51.3 nM | 0.33 nM |  |
| B15 |  | 92.4 nM | 0.32 nM |  |

— patent US20100260668A1 (published 2010)
